Experimental data from article PMC4674770, “Aβ-dependent reduction of NCAM2-mediated synaptic adhesion contributes to synapse loss in Alzheimer's disease” (Nature Communications, 2015).

Biological target: T1, Aβ1-42 peptide (Aβ1-42 oligomers, Aβ-derived diffusible ligands) (UniProt P05067 672-713)
T1 construct: amyloid-beta peptide 1-42, the cut product of the amyloid precursor protein APP; numbers count on: the Aβ peptide; Used as oligomers: by SDS-PAGE and western blot mainly tetramers (~18 kDa) with a minor monomer band (~4.5 kDa); also called synthetic Aβ_(1-42); source: bought: AbcamBiochemicals (synthetic Aβ1-42), prepared as Aβ-derived diffusible ligands
Experiment: ELISA; NCAM2-ED (25 nM) or BSA (25 nM) held on MaxiSorp 96-well plates coated with antibodies against the extracellular domain of NCAM2; Aβ1-42 7.8-250 nM in 0.05% Tween 20 and 0.1% BSA; bound Aβ1-42 detected with antibodies against Aβ1-42 and HRP-conjugated secondary antibodies
Conditions: both partners purified

binding result: binds
B1: recombinant extracellular domain of NCAM2 (NCAM2-ED) (domain or fragment, mouse, UniProt O35136 20-698, looked up)
chain: LLQVTISLSKVELSVGESKFFTCTAIGEPESIDWYNPQGEKIISTQRVMLQKEGVRSRLTIYNANIEDAGIYRCQATDAKGQTQEATVVLEIYQKLTFREVVSPQEFKQGEDAEVVCRVSSSPAPAVSWLYHNEEVTTIPDNRFAVLANNNLQILNINKSDEGIYRCEGRVEARGEIDFRDIIVIVNVPPAIMMPQKSFNATAERGEEMTLTCKASGSPDPTISWFRNGKLIEENEKYILKGSNTELTVRNIINKDGGSYVCKATNKAGEDQKQAFLQVFVQPHILQLKNETTSENGHVTLVCEAEGEPVPEITWKRAIDGVMFSEGDKSPDGRIEVKGQHGRSSLHIRDVKLSDSGRYDCEAASRIGGHQRSMHLDIEYAPKFVSNQTMYYSWEGNPINISCDVTANPPASIHWRREKLLLPAKNTTHLKTHSVGRKMILEIAPTSDNDFGRYNCTATNRIGTRFQEYILELADVPSSPHGVKIIELSQTTAKISFNKPESHGGVPIHHYQVDVKEVASETWKIVRSHGVQTMVVLSSLEPNTTYEIRVAAVNGKGQGDYSKIEIFQTLPVREPSPPSIHGQPSSGKSFKISITKQDDGGAPILEYIVKYRSKDKEDQWLEKKVQGNKDHIILEHLQWTMGYEVQITAANRLGYSEPTVYEFSMPPKPNIIKDTLFNG
notes: signal peptide in the construct; neural cell adhesion molecule 2 (NCAM2, OCAM), mouse, extracellular domain, amino acids 1-698, amplified from a mouse brain cDNA library; About 100 kDa on gels; also called recombinant soluble extracellular domains of NCAM2; source: CHO cells (CHO-K1), stably transfected, secreted into the culture medium; purified (40% ammonia sulphate, desalted, …)
